Common to all, as to type: in vivo, mice
One assay deals with liver. As to the kind of experiment: Liver cAMP level and PKA activity after subcutaneous injection. As to conditions: single 30 μg dose, 20 minutes. The source says: […] Data are represented as the mean±SEM.
Cell Culture. […] Results were normalized to protein content.
A general note: Changes in cAMP serve as a functional read-out for many G protein-coupled receptors.

Assay [1] deals with hepatic glucose production. Description: Hyperinsulinemic-euglycemic clamp. The procedure:
Animals. […] MgR heterozygous mice were obtained from Jackson labs, and bred to obtain male MgR homozygous mice and WT littermates. 5-week-old male Ob/Ob mice were obtained from Jackson labs. […] For diet induced obesity studies, mice were placed on the adjusted calories diet providing 60% of calories from fat by Harlan-Teklad for 12 weeks. […] Mice were exposed to 30 μg recombinant His-tagged asprosin or recombinant Green Fluorescent Protein (GFP) daily for 10 days via subcutaneous injection. Mice were sacrificed and plasma and various organs were isolated 10 days after virus or peptide injection. For single dose injections, the same protocol was followed as that for daily injections, followed by collection of plasma at the indicated times via tail bleeds for insulin and glucose measurement. Insulin and glucose tolerance tests (ITT and GTT) were performed using standard procedures. […] For immunologic sequestration experiments, mice were injected intra-peritoneally with a 500 μg dose in saline of a custom-built (Thermo Scientific Inc.) anti-asprosin mouse monoclonal antibody directed against amino acids 106-134 (human profibrillin amino acids 2837-2865) or an equivalent dose of isotype matched IgG (Southern Biotech, Inc.). […] The Baylor College of Medicine Institutional Animal Care and Utilization Committee approved all experiments.

Assay [2] is described as follows: Food intake, energy expenditure and body composition after asprosin gain-of-function. As to the method: Mouse food intake and energy expenditure—Food intake and energy expenditure were measured using the CLAMS System (Comprehensive Lab Animal Monitoring System, Columbus Instruments). Animals were acclimatized in the recording chambers for 48-72 hours, and measurements were taken subsequently for 24 hours during the light cycle and dark cycle. Mice received food and water ad libitum, or after an overnight fast where indicated. Oxygen consumption and food intake were recorded.
As previously described (Yan et al., 2016), male mice were anesthetized with inhaled isoflurane and stainless steel cannulas (Plastics One) were inserted into the lateral ventricles (0.34 mm caudal and 1 mm lateral from bregma; depth, 2.3 mm). […] These mice received 10 ng GFP ([…]) twice a day for 3 continuous days, and 10 ng asprosin (in […]) the last day. The BioDAQ food intake monitoring system (Research Diets, Inc) was used to monitor the food intake, and the food intake from the last GFP injection and asprosin were compared.
Mouse body composition—Body composition was analyzed using an ECHO-MRI system (Echo medical systems, Texas) or DEXA scans where indicated. Lean mass, fat mass, and overall body weight were calculated using the manufacturer-provided software.

Setting [3] is: daily subcutaneous doses for 10 days.

B1: recombinant asprosin: 146 amino acid E. coli expressed fusion protein: 6 amino acid N-terminal His tag and 140 amino acid wild type asprosin (FBN1 2732-2871) (protein)
chain: HHHHHHSTNETDASNIEDQSETEANVSLASWDVEKTAIFAFNISHVSNKVRILELLPALTTLTNHNRYLIESGNEDGFFKINQKEGISYLHFTKKKPVAGTYSLQISSTPLYKKKELNQLEDKYDKDYLSGELGDNLKMKIQVLLH
B1: in the assay with liver, the “liver cAMP and protein kinase A activity” value was “sufficient to increase liver cAMP and protein kinase A activity”. Further, in assay [1] (elevated plasma asprosin, 10 days after FBN1 adenovirus (FIG. 21C)), the hepatic glucose production entry is reported as “increased hepatic glucose production”. In assay [1] (glucose disposal rate, FIG. 21D), the “ability of peripheral organs to take up glucose in response to insulin” value is listed as “no impact”. Also, in assay [2] (IP injection, 24 hours cumulative food intake), the “orexigenic effect in mice with AgRP neuron ablation” value is “completely eliminated”. In assay [2] (setting [3]), the “adiposity (fat mass)” value is listed as “increase in adiposity”, the energy expenditure entry is “no change in energy expenditure” and the food intake result was “expected hyperphagia”. In addition, the “food intake after intracerebroventricular (ICV) injection” value in assay [2] (dark phase, 10 ng ICV) is listed as “orexigenic effect”. Also, the “food intake (FIG. 17)” value in assay [2] (mice injected with asprosin) is listed as “hyperphagia”. In assay [2] (single subcutaneous dose), the “hypophagia of NPS mice” value is “sufficient to completely rescue the hypophagia” and the “latent phase prior to orexigenic effect” value is “latent phase of several hours”. Besides, in assay [2] (single subcutaneous dose, C57Bl/6 mice, vs GFP), the “food intake over the next 24-hr” value is listed as “greater food intake”.

The values are drawn from patent US20210047398A1, “ASPROSIN, A FAST-INDUCED GLUCOGENIC PROTEIN HORMONE” (Baylor College of Medicine, priority 2016, published 2021).
